Consider one substance from PMC5650612, “Enhancing Tropane Alkaloid Production Based on the Functional Identification of Tropine-Forming Reductase in Scopolia lurida, a Tibetan Medicinal Plant” (Frontiers in Plant Science, 2017).

The subject of the series is CN1[C@@H]2CC[C@H]1CC(=O)C2. In words: purified protein. To be noted: pH 6.4.

As for SlTRI (Anisodus luridus), the Km is given as 40.90 ± 7.059 mM, the Vmax stood at 1.95 µmol/min/mg and the kcat/Km was 24 M⁻¹ s⁻¹.

One may read the Km as the concentration of substrate that gives half-maximal velocity. The term Vmax denotes the rate approached at saturating substrate. The kcat/Km is the turnover number divided by the Michaelis constant.
